pKd: −log10 of the molar value.
Biological target: yNap1 C200A/C249A/C272A labelled with Alexa dye at Cys-414 (yNap1m*) (yeast) (UniProt P25293)
Assay: other fluorescence titration

linker histone H1 (natural protein) showed a pKd of 8.52 and a stoichiometry N (H1 per yNap1 dimer) of 2.

Source: PMC2583301
